The results in this text go back to US20200277374A1 (Alector, published 2020).

Assay [1] addresses human Siglec-7 expressed on human cells (primary monocytes, dendritic cells, macrophages, NK cells, microglia, U937 cells, human cells of humanized mice) (human) (UniProt Q9Y286). Nature of the assay: cell-based or functional assay.
The target is the same in assay [2]. Nature of the assay: FACS, human primary monocytes, 10 ug/ml mAb.
Assay [3] shares this target. Description: FACS, human primary macrophages, 10 ug/ml mAb. (In general: A flow cytometer gives signals particle by particle.)
Assay [4] has the same target. Description: FACS, human primary dendritic cells, 10 ug/ml mAb.
For assay [5], the target named is T1, Siglec-7-Fc (plate immobilized) (human, UniProt Q9Y286 19-357, limits assumed).
T1 construct: also called Siglec-7-Fc protein; immobilized Siglec-7; not shown: Fc part
T1 sequence (Q9Y286 19-357 limits assumed): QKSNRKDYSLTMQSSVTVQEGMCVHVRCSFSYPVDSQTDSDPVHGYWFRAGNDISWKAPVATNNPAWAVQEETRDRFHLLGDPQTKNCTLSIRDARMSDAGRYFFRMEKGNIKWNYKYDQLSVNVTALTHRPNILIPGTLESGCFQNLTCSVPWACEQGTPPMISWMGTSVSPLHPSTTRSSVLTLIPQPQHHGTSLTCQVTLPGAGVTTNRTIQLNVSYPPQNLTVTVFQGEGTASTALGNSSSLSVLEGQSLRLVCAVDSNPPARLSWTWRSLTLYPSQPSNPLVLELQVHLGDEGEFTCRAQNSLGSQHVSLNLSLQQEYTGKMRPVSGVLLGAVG
Description: RBC solid adhesion assay, plate-coated Siglec-7-Fc, antibody 0.5 or 1.0 ug/ml; % of RBC binding without antibody. The procedure:
To determine which antibodies compete with ligand binding to Siglec-7, a red blood cell (RBC) solid adhesion assay was carried out in accordance with standard protocols (Kelm et al., Current Biology, 1994). Red blood cells are highly decorated with glycoproteins containing sialic acids: therefore, the ability of an antibody to block RBC binding to immobilized Siglec-7 can be used to determine ligand interference. Briefly, 5 μg/ml Siglec-7-Fc was coated overnight at RT in 96 well Immunolon plates, then washed with PBS, blocked for one hour with binding buffer (PBS containing %0.25 BSA 1 mM CaCl₂), Siglec-7 antibodies (0.5 μg/ml or 1.0 μg/ml) were bound for one hour at RT with gentle rocking. After removal of unbound antibody, red blood cells were added to each well at a concentration of 3.0×10⁶ cells per ml and incubated at RT for one hour. Unbound RBCs were then carefully washed off 3× with PBS, and water was added to each well for hypotonic lysis of bound RBCs. The plate was transferred to −80° C. for 10 minutes, followed by 37° C. for 15 minutes. Bound RBCs were detected by peroxidase activity, followed by 2N sulfuric acid to stop the reaction. Signal was detected at […]. Data was calculated as a percent of RBC binding to plate bound Siglec-7-Fc in the absence of antibody.

Chain of human Siglec-7 expressed on human cells (primary monocytes, dendritic cells, macrophages, NK cells, microglia, U937 cells, human cells of humanized mice) (human) (Q9Y286 19-467): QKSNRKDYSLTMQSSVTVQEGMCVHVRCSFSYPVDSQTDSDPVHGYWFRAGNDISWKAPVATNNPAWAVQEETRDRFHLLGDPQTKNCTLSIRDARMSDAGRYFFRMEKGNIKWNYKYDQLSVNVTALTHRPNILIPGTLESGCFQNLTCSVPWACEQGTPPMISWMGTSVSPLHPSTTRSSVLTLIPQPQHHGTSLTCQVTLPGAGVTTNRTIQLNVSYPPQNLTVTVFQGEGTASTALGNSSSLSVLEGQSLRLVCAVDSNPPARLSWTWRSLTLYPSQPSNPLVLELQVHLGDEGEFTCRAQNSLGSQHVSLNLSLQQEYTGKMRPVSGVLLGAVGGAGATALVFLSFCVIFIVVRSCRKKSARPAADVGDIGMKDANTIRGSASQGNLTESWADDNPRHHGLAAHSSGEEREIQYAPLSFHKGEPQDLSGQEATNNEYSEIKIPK

In assay [1], “commercially available anti-Siglec-7 antibody Mab1138 (R&D Systems; Cat. No. MAB 1138)” showed a Percent Siglec-7 Surface Expression, DCs of 96.7%; a Percent Siglec-7 Surface Expression, Macrophages of 98.7%; a Percent Siglec-7 Surface Expression, Microglia of 80.2%; a Percent Siglec-7 Surface Expression, Monocytes of 99.6%. Further, in assay [1], the Percent Siglec-7 Surface Expression, NK cells came to 103% and the Percent Siglec-7 Surface Expression, U937 cells amounted to 98.2%. In assay [2], the % Positive worked out at 19.9% and the MFI was determined as 175. In assay [3], this substance showed a % Positive of 98.6% and an MFI of 4220. In assay [4], this substance came in with a % Positive of 73.9% and an MFI of 1450. This substance also registered a Percent RBC Binding to Siglec-7 in assay [5] of 97.1%.
